Results published in the supplement of paper PMC12338614.

B1: library; numbered along this chain (parent)
chain: MEVVDPQQLGMFTEGELMSVGMDTFIHRIDSTEVIYQPRRKRAKLIGKYLMGDLLGEGSYGKVKEVLDSETLCRRAVKILKKKKLRRIPNGEANVKKEIQLLRRLRHKNVIQLVDVLYNEEKQKMYMVMEYCVCGMQEMLDSVPEKRFPVCQAHGYFCQLIDGLEYLHSQGIVHKDIKPGNLLLTTGGTLKISDLGVAEALHPFAADDTCRTSQGSPAFQPPEIANGLDTFSGFKVDIWSAGVTLYNITTGLYPFEGDNIYKLFENIGKGSYAIPGDCGPPLSDLLKGMLEYEPAKRFSIRQIRQHSWFRKKHPPAEAPVPIPPSPDTKDRWRSMTVVPYLEDLHGADEDEDLFDIEDDIIYTQDFTVPGQVPEEEASHNGQRRGLPKAVCMNGTEAAQLSTKSRAEGRAPNPARKACSASSKIRRLSACKQQ

Variants of: B1
Assay: STK11 functional score (HeLa growth suppression), rescaled enrichment; synonymous median = 1, nonsense median = 0 (normalised score)
Conditions: with HeLa; variant type: missense
How it was run: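 Functional scores are post/pre-selection log ratios corrected to wild type, rescaled to synonymous and nonsense medians, merged over codons and replicate transfections, and given bootstrapped error. They come from POPCode libraries of codon-optimised STK11 integrated by Bxb1 at an AAVS1 landing pad in HeLa, three regions each transfected three times, with BFP-negative, mCherry-positive integrants sorted by FACS and tiled gDNA amplicons sequenced on NextSeq.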

STK11 functional score: each site, then its substitutions
R297: P -0.429 | L -0.121 | C -0.195 | S -0.196 | W -0.193 | F -0.355 | K -0.29 | I 0.0965 | A 0.147 | G -0.132 | D 0.0713 | V -0.053 | T -0.0209
H306: Y 0.195 | S 1.53 | L 0.85 | W -0.368 | Q 0.514 | C 0.975 | G 0.475 | T 1.54 | R 0.628 | V 0.418 | A 1.38 | E 1.19 | P 0.114 | I 0.83
I303: V 1.43 | N 1.54 | D -0.579 | S -0.209 | Q 1.56 | F 0.372 | C 0.545 | M 0.518 | Y -0.337
M289: S -0.188 | V 0.966 | R -0.101 | P -0.379 | Y -0.218 | E -0.103 | A 0.107 | G -0.0773 | Q 0.0869 | C 0.75 | F -0.0683 | D 0.312 | L 0.831 | W -0.296
L282: V 0.86 | P 0.541 | Y 1.07 | T 0.466 | M 0.225 | S 0.442 | W 0.522 | R 0.128
L286: P -0.27 | D -0.166 | W 1.16 | A 0.163 | Y 1.36 | F 0.971 | V 1.14 | S 0.0276 | N 0.195 | H 0.00834 | I 1.36 | E 0.235 | Q 0.0782 | R -0.117 | G -0.0797 | T 1.12
E291: M 1.66 | D 1.03 | K 1.28 | P 0.178 | F 0.825 | R 1.53 | I 1.22 | T 1.15 | N 0.978 | S 1.38 | V 1.28 | W 1.35 | G 0.922 | L 0.796 | Q 1.36 | C 1.24 | H 1.17 | A 1.47
Q305: T 1.5 | Y 1.53 | E 1.02 | I 1.53 | M 1.51 | V 1.59 | K 0.543 | W 0.981 | D 1.36 | S 0.954 | A 1.33 | H 0.99 | G 1.52 | F 1.51 | R 1.14 | C 1.27 | L 1.6
D284: H 1.14 | M 1.19 | F 0.579 | R 1.55 | V 0.716 | E 1 | A 0.668 | N 1.29 | P 0.0198 | T 0.863 | S 1.27 | L 0.935 | C 0.513 | I 1.14 | W 0.576 | G 0.99
S307: A 1.49
A295: C 1.31 | S 1.44 | W 1.36 | F 1.08 | N 1.24 | V 1.17 | I 1.35 | H 1.4 | G 1.37 | L 0.756 | D 1.21
E293: G 0.451 | V 1.02 | D 1.43 | H 1 | T 1.3 | W 1.07 | A 1.03 | I 1.16 | M 0.995 | Q 1.23 | S 1.08 | N 1.55 | R 0.395 | F 1.07 | L 0.882 | P 0.842
Y292: P 1.38 | L 0.546 | F 0.991 | C 0.438 | V 0.931 | I 1.09 | A 1.15 | T 1.68 | E 1.52 | W 0.686 | D 1.09 | R 1.22 | G 1.45 | M 1.64 | S 1.28
Q302: W 0.804 | A 1.45 | V 1.21 | G 1.14 | P -0.0839 | L 1.45 | S 1.47 | C 1 | H 1.12 | E 0.957 | F 1.14 | K 0.605 | R 1.53
K287: I 1.27 | D 1.27 | Q 1.19 | H 1.3 | W 0.0714 | A 0.932 | V 1.2 | F 1.25 | S 0.94 | L 0.865 | Y 0.843 | G 1.28 | N 1.49 | R 0.533 | T 1.25 | P 0.105 | E 1.62
L285: Y -0.477 | P -0.13 | D -0.216 | I 0.951 | A -0.0789 | V 0.239 | S -0.0113 | R -0.201 | W -0.0646 | Q -0.0107 | F 0.988 | T -0.111 | E -0.0678 | G -0.0815 | H -0.443
P294: T 1.09 | D 0.708 | G 0.877 | I 0.351 | R 0.705 | M 1.13 | L 0.297 | Q 1.39 | H 0.973 | W 1.36 | S 0.67 | E 1.3 | V 1.36 | N 0.433 | A 1.39
F298: Y 0.754 | R 0.428 | I 1.35 | V 0.839 | E -0.101 | S 0.975 | P 1.16 | A 1.55 | G -0.228 | L 0.608 | W 0.876 | D 1.48
G288: R 0.927 | C 0.989 | Y 0.713 | H 1.61 | P 0.0262 | A 0.95 | D -0.347 | V 0.518 | E 1.5 | L 0.221 | S 0.938 | M 1.23 | F 0.357 | I -0.0856
I300: W 1.27 | L 1.25 | C 0.803 | P 1.42 | R -0.144 | M 0.944 | V 1.13 | S 0.391 | F 1.21 | G 0.368 | A 1.51
R304: Y -0.17 | S 0.843 | I 0.364 | K 1.31 | G 1.24 | V 1.51 | A 1.49 | F 0.0963 | L 1.06
K296: N 1.12 | M 1.32
S299: L 0.649 | T 1.55 | E 1.56 | W 1.24 | I 1.25 | F 0.544 | D 1.18 | G 1.18 | N 1.59 | C 1.3 | V 0.978 | R 1.53 | A 1.42
S283: P 1.15 | W 0.819 | Y 0.69 | V 1.17 | Q 1.51 | C 0.98 | M 1.28 | G 1.19 | D 1.29 | I 0.942 | T 1.47 | A 1.24 | R 1.29 | E 0.826 | L 0.985 | F 0.745 | N 1.4
L290: I 1.06 | V 0.625 | A 0.0427 | S 0.0143 | Q -0.237 | N -0.076 | W 0.691 | T 1.07 | R -0.22 | Y -0.205 | P 0.264 | G 0.0144 | M 0.891 | C 1.06 | E -0.387 | F 0.664 | H -0.09 | D -0.275
R301: S 1.49 | I 1.65 | V 1.62 | C 1.17 | L 1.6 | G 1.48 | Y 1.6 | F 1.55 | P 1.07 | A 1.56
